Each binder was assayed against acetylcholine receptor on acetylcholine receptor-overexpressing TE671 cells (assay: cell-based or functional assay).

| Binder | inhibition of acetylcholine receptors (calcium imaging with Fura-2-AM, TE671 cells, nicotine 400 uM) |
| --- | --- |
| RKRIRR [6mer-1-43] | 10 µM |
| RSYSR [5mer-311] | 10 µM |
| RRQRR [5mer-73] | 10 µM |

More lines, now with the values ahead:

| inhibition of acetylcholine receptors (calcium imaging with Fura-2-AM, TE671 cells, nicotine 400 uM) | Binder |
| --- | --- |
| 10 µM | KWRQKR [6mer-2-233] |
| 10 µM | RRGVRR [6mer-1-210] |
| 10 µM | RWRYKR [6mer-2-136] |

Source: patent publication US20250011363A1 (published 2025)
